# Marks after values point to notes of the source that are not given here.
# Experiments:
# [1] = system: PTK7 expressing NCl—H446 tumor model; experiment: In vivo efficacy study, NCl—H446 xenograft, with Olaparib (Example 33); design: species or system BALB/c nude mice; details: ADC 2.5 mg/kg single IV dose; Olaparib 50 mg/kg orally QD×21 days
# Experimental: (§1) NCl—H446, lung cancer xenograft model cell line was maintained in vitro using RPMI-1640 medium supplemented with 10% FBS in humidified cell culture incubator at 37° C. with standard 5% CO2 specs. The cells in an exponential growth phase were harvested and counted for tumor inoculation.
# BALB/c nude mice (female) of 7-9 weeks old received a subcutaneous injection in the right front flank region with 5×10^6 tumor cells in 0.1 ml of PBS mixed with Matrigel (1:1) for tumor development. When tumors reached an average size of 100-200 mm^3, randomization was performed into 5 groups of 8 mice and treatment began. Randomization will be performed based on “Matched distribution” method (Study Director™ Software, version 3.1.399.19). The date of randomization will be denoted as day 0.
# (§2) Electronic caliper measurement were performed 2 times a week. Daily observations for clinical signs, food and water consumption, behavioral changes, animals were weighed 2 times per week. […]
# (§3) Observation and data collection: After tumor cells inoculation, the animals are checked daily for morbidity and mortality. […] Tumor volumes are measured every 3-4 days in two dimensions using an caliper, and the volume data are expressed in mm3 using the formula: V=(L×W×W)/2, where V is tumor volume, L is tumor length (the longest tumor dimension) and W is tumor width (the longest tumor dimension perpendicular to L). […]
# [2] = system: A431 (PTK7+, ATCC CRL-1555) cells; experiment: In vitro cytotoxicity, resazurin viability; assay type: cell-based; details: 5 days incubation
# Experimental: A431 (PTK7+, ATCC CRL-1555) cells were plated in 96-well plates (10000 cells in 150 μL/well) in DMEM (ATCC) supplemented with 10% fetal bovine serum (FBS) (Invitrogen) and incubated overnight in a humidified atmosphere at 37° C. and 5% CO2. ADCs were added in triplo in a square root of 10 dilution series to obtain a final concentration ranging from 100 nM-0.01 nM. The cells were incubated for 5 days in a humidified atmosphere at 37° C. and 5% CO2. The culture medium was replaced by 0.01 mg/mL resazurin (Sigma Aldrich) in DMEM supplemented with 10% FBS (200 μL/well). After approximately 4 hours in a humidified atmosphere at 37° C. and 5% CO2 the fluorescence was detected with a fluorescence plate reader (Infinite® M1000 Tecan) at 560 nm excitation and 590 nm emission. The relative fluorescent units (RFU) were normalized to cell viability percentage by setting wells without cells at 0% viability and wells with untreated cells at 100% viability (see FIG. 9). IC50 values for ADCs on A431 cells were calculated by non-linear regression using Graphpad prism software and are shown in the table below: […]
# [3] = system: PTK7 expressing NCl—H446 tumor model; experiment: In vivo efficacy study, NCl—H446 xenograft (Example 30); design: species or system BALB/c nude mice; details: single IV dose; cofetuzumab-3 2.59, 5.18, 10.36 mg/kg; cofetuzumab-5b 2.59, 5.18 mg/kg; cofetuzumab-Aur0101 2.33 mg/kg; up to t=44 days
# Experimental: as §1
# BALB/c nude mice (female) of 7-9 weeks old received a subcutaneous injection in the right front flank region with 5×10^6 tumor cells in 0.1 ml of PBS mixed with Matrigel (1:1) for tumor development. When tumors reached an average size of 100-200 mm^3, randomization was performed into 10 groups of 8 mice and treatment began. Randomization will be performed based on “Matched distribution” method (Study Director™ Software, version 3.1.399.19). The date of randomization will be denoted as day 0.
# as §2
# as §3, with “collection.” for “collection: After tumor cells inoculation, the animals are checked daily for morbidity and mortality.”
# [4] = Stability of ADCs in human plasma (DAR by RP-UPLC); assay type: in vitro ADME
# Experimental: (§4) General procedure for analytical RP-UPLC (DTT treated samples): Prior to RP-UPLC analysis, IgG (10 μL, 1 mg/mL in PBS pH 7.4) was added to 12.5 mM DTT, 100 mM TrisHCl pH 8.0 (40 μL) and incubated for 15 minutes at 37° C. The reaction was quenched by adding 49% acetonitrile, 49% water, 2% formic acid (50 μL). RP-UPLC analysis was performed on a Waters Acquity UPLC-SQD. The sample (5 μL) was injected with 0.4 mL/min onto Bioresolve RP mAb 2.1*150 mm 2.7 μm (Waters) with a column temperature of 70° C. A linear gradient was applied in 9 minutes from 30 to 54% acetonitrile in 0.1% TFA and water. Absorbance of eluted peaks was measured at 215 nm followed by automated integration (MassLynx, Waters) to determine reaction conversion.
# (§5) Stability of ADCs in mice and human plasma was tested. Prior to the assay, the plasma was depleted from all IgG using CaptivA® Protein A agarose (1 mL agarose/mL serum). ADCs were added to the depleted human/mouse serum to a final concentration of 0.1 mg/mL followed by incubation at 37° C. At each time point, 0.5 mL was snap frozen and stored at −80° C. until further analysis. To isolate the ADCs after incubation, 20 μl CaptivA® Protein A agarose resin was added to the samples and incubated for 1 hour at room temperature. The resin was washed three times with PBS and subsequently 0.1 M Glycine-HCl pH 2.7 (0.4 mL) was added to elute the ADCs. After elution, the samples were immediately neutralized with 1.0 M Tris pH 8.0 (0.1 mL). The samples were spin-filtered against PBS for three times using Amicon Ultra spin-filter 0.5 mL MWCO 10 kDa (Merck Millipore) and the volume was reduced to 40 μL, yielding a final ADC concentration of approximately 1 mg/mL. Samples were analyzed on RP-UPLC (DTT reduced) to determine the DAR, tables below.
# [5] = Stability of ADCs in mice plasma (DAR by RP-UPLC); assay type: in vitro ADME
# Experimental: as §4, §5
# [6] = human plasma, 0.1 mg/mL, 37° C.
compound,measurement,setting,value
O=C(c1cc(Cc2n[nH]c(=O)c3ccccc23)ccc1F)N1CCN(C(=O)C2CC2)CC1 [Olaparib],"in vivo efficacy (tumor volume over time), single treatment",[1],no significant effect
B12-3: B12(6-N3-GalNAc)2 conjugated with BCN—HS-PEG2-HS-(va-PAB-Ex)2 3; negative / isotype control ADC [reference compound],IC50,[2],> 100 nM
cofetuzumab-5b: cofetuzumab(6-N3-GalNAc)2 conjugated with BCN—HS-vc-PABC-calicheamicin 5b; average DAR 1.93,in vivo efficacy (tumor volume over time),[3],tumor growth delay
same,IC50,[2],0.1 nM
cofetuzumab-Aur0101: TCEP-reduced cofetuzumab conjugated with Auristatin0101; average DAR 4.3; conventional comparator ADC [reference compound],DAR t = 0,"[4]; human plasma table, direct measurement (not through isolation from plasma with protA agarose resin)",4.21*
same,DAR t = 3,[4]; [6],3.61
same,DAR t = 14,[4]; [6],2.67
same,"DAR t = 14, % of t = 0",[4]; [6],63%
same,in vivo efficacy (tumor volume over time),[3],only marginal tumor growth delay
same,DAR t = 0,"[5]; mice plasma table, direct measurement (not through isolation from plasma with protA agarose resin)",4.21*
same,DAR t = 1,"[5]; mice plasma, 0.1 mg/mL, 37° C.",3.64
same,DAR t = 3,"[5]; mice plasma, 0.1 mg/mL, 37° C.",3.26
same,DAR t = 7,"[5]; mice plasma, 0.1 mg/mL, 37° C.",2.46
same,"DAR t = 7, % of t = 0","[5]; mice plasma, 0.1 mg/mL, 37° C.",58%
